Experimental data reported in patent EP2058006A1.

Columns and labels:
[1] = target: CC-chemokine receptor CCR5 on the cell surface (UniProt P51681); assay: flow cytometry on PHA/IL-2-stimulated PBMC, mean fluorescence intensity
[2] = target: CC-chemokine receptor CCR5 on the cell surface (UniProt P51681); assay: cell-based or functional assay
[3] = target: CC-chemokine receptor CCR5 on the cell surface (UniProt P51681)
[4] = target: CC-chemokine receptor CCR5 on the cell surface (UniProt P51681); assay: flow cytometry on L1.2-CCR5+ cells, saturating mAb, PE anti-mouse IgG
[5] = target: CC-chemokine receptor CCR5 on the cell surface (UniProt P51681); assay: flow cytometry on PHA/IL-2-stimulated PBMC

Sequence of UniProt P51681 (P51681 whole entry): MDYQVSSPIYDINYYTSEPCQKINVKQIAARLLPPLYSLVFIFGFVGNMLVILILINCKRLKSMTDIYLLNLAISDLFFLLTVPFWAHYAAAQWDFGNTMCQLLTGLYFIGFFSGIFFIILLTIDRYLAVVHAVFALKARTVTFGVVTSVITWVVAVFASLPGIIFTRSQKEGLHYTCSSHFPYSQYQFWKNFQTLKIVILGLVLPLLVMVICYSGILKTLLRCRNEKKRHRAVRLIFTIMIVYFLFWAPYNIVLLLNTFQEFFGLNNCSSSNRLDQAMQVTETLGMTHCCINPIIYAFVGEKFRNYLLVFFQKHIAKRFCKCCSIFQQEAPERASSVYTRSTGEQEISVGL

Substance | fold difference in m.f.i. against PA9 [1] | IC50, inhibition of JR-FL entry (luciferase reporter virus, U87MG-CD4+CCR5+ cells) [2] | IC50, inhibition of cell-cell fusion (RET assay, PM1 and HeLa-EnvJR-FL+ cells) [2] | IC50 for inhibition of RANTES-induced calcium influx in L1.2-CCR5+ cells [2] | ratio of the PA14 IC50 to the 2D7 IC50, RANTES-induced calcium influx [2] | IC50 [3] | % of L1.2-CCR5+ cells stained [4] | % of PBMC stained [5] | K (equal to the IC50), inhibition of cell-cell fusion, median effect fit (RET assay) [2]
anti-CCR5 monoclonal antibody PA14 (ATCC Accession No. HB-12610) | 7 fold | 0.024 µg/mL | 1.7 µg/mL | 50 µg/mL | 8 fold | 1.58 µg/mL | > 90% | > 20% | 
anti-CCR5 mAb 2D7 (Pharmingen) (antibody) |  | 0.026 µg/mL | 1.6 µg/mL |  |  | 1.38 µg/mL | > 90% | > 20% | 0.36 µg/mL
